Tests used:
[1] = molecular target: the molecule itself; experiment: cryo-EM structure
[2] = molecular target: the molecule itself; experiment: SEC

B1: ^coreAFG3L2^WB/PI (human AFG3L2 catalytic core, residues 272-797, E408Q/E575Q) (domain or fragment)
chain: not shown
[1]
  stoichiometry N: 6

B2: ^coreAFG3L2^WB/PI/Δ781−797 (domain or fragment)
chain: not shown
[2]
  binding result: binds

Source: publication PMC6731152 (Molecular cell, 2019)
